Experimental data published in article PMC7032593 (Nature cell biology, 2019).

B1: ATG3 WT (enzyme)
chain: not shown
B2: ATG12–ATG5 conjugate (GST-ATG12 with untagged ATG5) (complex, human)
chain 1: MAEEPQSVLQLPTSIAAGGEGLTDVSPETTTPEPPSSAAVSPGTEEPAGDTKKKIDILLKAVGDTPIMKTKKWAVERTRTIQGLIDFIKKFLKLVASEQLFIYVNQSFAPSPDQEVGTLYECFGSDGKLVLHYCKSQAWG
chain 2: MTDDKDVLRDVWFGRIPTCFTLYQDEITEREAEPYYLLLPRVSYLTLVTDKVKKHFQKVMRQEDISEIWFEYEGTPLKWHYPIGLLFDLLASSSALPWNITVHFKSFPEKDLLHCPSKDAIEAHFMSCMKEADALKHKSQVINEMQKKDHKQLWMGLQNDRFDQFWAINRKLMEYPAEENGFRYIPFRIYQTTTERPFIQKLFRPVAADGQLHTLGDLLKEVCPSAIDPEDGEKKNQVMIHGIEPMLETPLQWLSEHLSYPDNFLHISIIPQPTD

Key:
[1] = target: GST-ATG12-5–16L1β complex (human, UniProt O94817 1-140; Q9H1Y0 1-275; Q676U5 1-607); assay: pull-down
[2] = target: ATG16L1β (full-length human ATG16L1, β isoform) (human, UniProt Q676U5 1-607); assay: tandem affinity co-purification
ATG16L1β (full-length human ATG16L1, β isoform), sequence (Q676U5 whole entry, canonical isoform): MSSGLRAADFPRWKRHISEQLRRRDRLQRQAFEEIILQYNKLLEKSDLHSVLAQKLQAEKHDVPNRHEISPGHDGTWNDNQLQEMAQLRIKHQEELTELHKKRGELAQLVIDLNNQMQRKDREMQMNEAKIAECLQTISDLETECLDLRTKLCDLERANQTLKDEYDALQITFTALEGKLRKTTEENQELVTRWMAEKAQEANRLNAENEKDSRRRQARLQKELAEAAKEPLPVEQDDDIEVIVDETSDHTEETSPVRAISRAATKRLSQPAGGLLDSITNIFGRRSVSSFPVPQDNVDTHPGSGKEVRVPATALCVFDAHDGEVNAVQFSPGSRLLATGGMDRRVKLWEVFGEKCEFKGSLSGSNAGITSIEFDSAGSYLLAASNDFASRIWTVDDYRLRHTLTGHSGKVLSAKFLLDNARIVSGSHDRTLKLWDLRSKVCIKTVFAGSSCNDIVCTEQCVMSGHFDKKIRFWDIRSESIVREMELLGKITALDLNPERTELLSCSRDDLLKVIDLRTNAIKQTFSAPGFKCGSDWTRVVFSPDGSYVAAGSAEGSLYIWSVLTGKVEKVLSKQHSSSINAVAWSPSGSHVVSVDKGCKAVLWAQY

GST-ATG12-5–16L1β complex, sequence (Q676U5 whole entry, canonical isoform, one chain of several): as the sequence (Q676U5 whole entry, canonical isoform) above

Row | Binder | binding result [1] | binding result [2]
1 | B1 | binds | –
2 | B2 | – | binds
